Test [1] deals with T1, PD1 (on CHO-PD1 cells and on T cells) (human, UniProt Q15116 25-288).
T1 construct: whole, on cells; also called PD1抗原分子
The test is described as follows: flow cytometry on CHO-PD1 cells. A general note: Flow cytometry measures light scatter and fluorescence of single cells or particles in a stream.

Test [2] deals with T2, CD96-His (human, UniProt P40200-2 22-503, limits assumed).
T2 construct: not shown: His tag
T2 sequence (looked up): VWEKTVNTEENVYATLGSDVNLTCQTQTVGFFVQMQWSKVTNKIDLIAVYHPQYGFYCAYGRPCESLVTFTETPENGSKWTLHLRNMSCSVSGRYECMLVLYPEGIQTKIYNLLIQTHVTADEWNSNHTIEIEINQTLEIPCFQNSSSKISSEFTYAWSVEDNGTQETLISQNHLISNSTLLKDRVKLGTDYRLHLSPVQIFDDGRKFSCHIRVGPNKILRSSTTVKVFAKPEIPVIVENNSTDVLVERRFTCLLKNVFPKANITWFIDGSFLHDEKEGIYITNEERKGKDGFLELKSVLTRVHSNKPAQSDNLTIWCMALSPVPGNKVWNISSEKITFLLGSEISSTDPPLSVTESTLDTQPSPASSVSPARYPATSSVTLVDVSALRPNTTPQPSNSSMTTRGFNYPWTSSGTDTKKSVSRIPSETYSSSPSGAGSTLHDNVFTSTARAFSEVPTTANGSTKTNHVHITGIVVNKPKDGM
The test is described as follows: BLI (Fortebio), CD96-His antigen immobilised.

Test [3] addresses T3, CD96 (on 293T-CD96 cells and on T cells) (human) (UniProt P40200).
T3 sequence (looked up): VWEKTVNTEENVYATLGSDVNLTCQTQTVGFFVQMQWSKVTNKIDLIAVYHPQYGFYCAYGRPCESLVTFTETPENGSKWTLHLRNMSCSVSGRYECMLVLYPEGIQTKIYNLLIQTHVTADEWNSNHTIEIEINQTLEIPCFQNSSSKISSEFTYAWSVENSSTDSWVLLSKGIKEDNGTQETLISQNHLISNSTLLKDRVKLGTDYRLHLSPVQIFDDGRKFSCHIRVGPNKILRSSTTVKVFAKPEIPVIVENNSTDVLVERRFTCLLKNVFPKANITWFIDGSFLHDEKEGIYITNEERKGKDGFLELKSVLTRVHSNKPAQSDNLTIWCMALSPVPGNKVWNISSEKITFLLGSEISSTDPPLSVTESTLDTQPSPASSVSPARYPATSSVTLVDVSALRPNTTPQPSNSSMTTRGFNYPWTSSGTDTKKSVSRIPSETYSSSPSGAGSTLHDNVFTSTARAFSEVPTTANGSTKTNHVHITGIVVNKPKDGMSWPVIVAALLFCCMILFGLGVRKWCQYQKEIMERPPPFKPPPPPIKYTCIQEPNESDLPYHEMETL
Put plainly: flow cytometry on 293T-CD96 cells, 1.25 μg antibody, FITC anti-IgG detection.

In test [4] the target is T3, CD96 (on 293T-CD96 cells and on T cells) (human). The test is described as follows: flow cytometry on T cells at day 11 (CD96 expression 96.05%), FITC anti-IgG detection.

T1 sequence (Q15116 25-288): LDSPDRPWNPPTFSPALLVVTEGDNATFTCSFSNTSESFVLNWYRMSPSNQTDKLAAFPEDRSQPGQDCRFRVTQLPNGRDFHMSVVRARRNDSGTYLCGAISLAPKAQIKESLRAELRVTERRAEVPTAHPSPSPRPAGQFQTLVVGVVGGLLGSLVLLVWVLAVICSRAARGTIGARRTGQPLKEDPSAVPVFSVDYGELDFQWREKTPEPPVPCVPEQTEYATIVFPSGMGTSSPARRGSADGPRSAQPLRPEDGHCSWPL

B1: CD96 ScFv-Holes-PD1 ScFv-Knobes (bispecific antibody, human IgG4 S228P)
chain 1: DVVMTQTPLTLSVTIGQPASISCKSSQSLLDSDGKTYLNWLLQRPGESPKLLIYLVSKLDSGVPDRFTGSGSGTDFTLKISRVEAEDLGVYYCLQATHFPWTFGGGTKLEIKGSTSGSGKPGSGEGSTKGQVTLKESGPGILQPSQTLSLTCSFSGFSLDTFGMGVGWIRQSSGKGLEWLAHIWWDDDKFYNPALKSRLTVSKDTSKNQVFLKIANVDTADTATYYCAHYYGSLSFDVWGTGTTVTVSSESKYGPPCPPCPAPEFLGGPSVFLFPPKPKDTLMISRTPEVTCVVVDVSQEDPEVQFNWYVDGVEVHNAKTKPREEQFNSTYRVVSVLTVLHQDWLNGKEYKCKVSNKGLPSSIEKTISKAKGQPREPQVCTLPPSQEEMTKNQVSLSCAVKGFYPSDIAVEWESNGQPENNYKTTPPVLDSDGSFFLVSKLTVDKSRWQEGNVFSCSVMHEALHNHYTQKSLSLSLGK
chain 2: EIVLTQSPATLSLSPGERATLSCRASQSVSSYLAWYQQKPGQAPRLLIYDASNRATGIPARFSGSGSGTDFTLTISSLEPEDFAVYYCQQSSNWPRTFGQGTKVEIKGSTSGSGKPGSGEGSTKGQVQLVESGGGVVQPGRSLRLDCKASGITFSNSGMHWVRQAPGKGLEWVAVIWYDGSKRYYADSVKGRFTISRDNSKNTLFLQMNSLRAEDTAVYYCATNDDYWGQGTLVTVSSESKYGPPCPPCPAPEFLGGPSVFLFPPKPKDTLMISRTPEVTCVVVDVSQEDPEVQFNWYVDGVEVHNAKTKPREEQFNSTYRVVSVLTVLHQDWLNGKEYKCKVSNKGLPSSIEKTISKAKGQPREPQVYTLPPCQEEMTKNQVSLWCLVKGFYPSDIAVEWESNGQPENNYKTTPPVLDSDGSFFLYSKLTVDKSRWQEGNVFSCSVMHEALHNHYTQKSLSLSLGK
notes: Knob-into-hole heterodimer of two scFv-Fc chains
On to B1, for which, in test [1], the binding result is recorded as “binds”.

B2: CD96 ScFv-Fc (scFv)
chain: DVVMTQTPLTLSVTIGQPASISCKSSQSLLDSDGKTYLNWLLQRPGESPKLLIYLVSKLDSGVPDRFTGSGSGTDFTLKISRVEAEDLGVYYCLQATHFPWTFGGGTKLEIKGSTSGSGKPGSGEGSTKGQVTLKESGPGILQPSQTLSLTCSFSGFSLDTFGMGVGWIRQSSGKGLEWLAHIWWDDDKFYNPALKSRLTVSKDTSKNQVFLKIANVDTADTATYYCAHYYGSLSFDVWGTGTTVTVSS
notes: Monospecific scFv-Fc control ('单抗'); also called CD96单抗; CD96抗体; not shown: Fc of the monospecific ScFv-Fc
In the case of B2, the affinity in test [2], expressed as Kd, was 30.8 nM. This molecule gave an FITC-IgG的表达率 (percent positive cells) in test [3] of 86.7%. The FITC-IgG的表达 (percent positive cells) in test [4] was determined as 96.1%.

Broadly, the Kd is the constant that tells how readily two partners part at equilibrium. Low readings indicate higher affinity, high ones lower affinity.

The record behind these values is patent CN112961245A (CHONGQING PREC BIOTECH CO LTD, dated 2021).
